Experimental data from patent US20130195901A1 (published 2013).

Legend:
[1] = molecular target: T1, HLA-A*0201 class I monomer of the iTopia Epitope Discovery System; assay: iTopia binding ED50
[2] = molecular target: T1, HLA-A*0201 class I monomer of the …; assay: iTopia binding ED50; remark: listed apart in the source
[3] = molecular target: T1, HLA-A*0201 class I monomer of the …; assay: iTopia binding ED50; remark: listed apart in the source
[4] = molecular target: T1, HLA-A*0201 class I monomer of the …; assay: iTopia binding ED50; remark: listed apart in the source
[5] = molecular target: T1, HLA-A*0201 class I monomer of the …; assay: iTopia peptide binding (ED50)
[6] = molecular target: T1, HLA-A*0201 class I monomer of the …; assay: iTopia binding ED50; remark: listed apart in the source

B1: PSMA288-297 analog, Met at P2 (peptide)
peptide: GMPSIPVHPI
B1 was tested, and the EC50 [1] was 1070 nM.

B2: PSMA288-297 analog, Leu at PΩ (peptide)
peptide: GLPSIPVHPL
In the case of B2, the EC50 [2] is reported as 1170 nM.

B3: PSMA288-297 analog, Ala at PΩ-1 (peptide)
peptide: GLPSIPVHAI
In the case of B3, the EC50 [2] is reported as 816 nM.

B4: PSMA288-297 (peptide)
peptide: GLPSIPVHPI
For B4, the EC50 [3] was 1330 nM, the EC50 [1] was 1330 nM and the EC50 [4] was 1330 nM.

B5: PSMA288-297 analog, Thr at PΩ-1 (peptide)
peptide: GLPSIPVHTI
With B5 the EC50 [2] was 483 nM.

B6: PSMA288-297 analog, Gln at P2 (peptide)
peptide: GQPSIPVHPI
Binder B6 has an EC50 [1] of 669 nM.

B7: PSMA288-297 analog, Val at P2 (peptide)
peptide: GVPSIPVHPI
B7 showed an EC50 [1] of 2410 nM.

B8: PSMA288-297 analog, Leu at PΩ-1 (peptide)
peptide: GLPSIPVHLI
B8 gave an EC50 [2] of 586 nM.

B9: PSMA288-297 analog, Ala at P1, Val at P2, Val at PΩ (peptide)
peptide: AVPSIPVHPV
B9 was tested, and the EC50 [3] was 1080 nM.

B10: PSMA288-297 analog, Ala at P1, Trp at P3, Val at PΩ (peptide)
peptide: ALWSIPVHPV
In the case of B10, the EC50 [5] is reported as 494 nM.

B11: PSMA288-297 analog, Ser at PΩ-1 (peptide)
peptide: GLPSIPVHSI
B11 showed an EC50 [2] of 447 nM.

B12: PSMA288-297 analog, Ala at P1 and Val at PΩ (peptide)
peptide: ALPSIPVHPV
For B12, the EC50 [6] was 5970 nM.
